Molecular target: FrpB F3-3 variant (Neisseria meningitidis)
Experiment: crystal structure; FrpB F3-3, space group P212121, three copies in the asymmetric unit about a non-crystallographic 3-fold axis, 2.40 Å; C8E5 detergent; crystals from the monomeric SEC peak

Substance: FrpB F3-3 variant (natural protein)
- stoichiometry N: 3

Source: PMC3574120
